Measurements from IntAct's records for PubMed 32851177.

B1: Osteopetrosis-associated transmembrane protein 1 (Homo sapiens), Q86WC4 (parent)
chain: MEPGPTAAQRRCSLPPWLPLGLLLWSGLALGALPFGSSPHRVFHDLLSEQQLLEVEDLSLSLLQGGGLGPLSLPPDLPDLDPECRELLLDFANSSAELTGCLVRSARPVRLCQTCYPLFQQVVSKMDNISRAAGNTSESQSCARSLLMADRMQIVVILSEFFNTTWQEANCANCLTNNSEELSNSTVYFLNLFNHTLTCFEHNLQGNAHSLLQTKNYSEVCKNCREAYKTLSSLYSEMQKMNELENKAEPGTHLCIDVEDAMNITRKLWSRTFNCSVPCSDTVPVIAVSVFILFLPVVFYLSSFLHSEQKKRKLILPKRLKSSTSFANIQENSN
partner: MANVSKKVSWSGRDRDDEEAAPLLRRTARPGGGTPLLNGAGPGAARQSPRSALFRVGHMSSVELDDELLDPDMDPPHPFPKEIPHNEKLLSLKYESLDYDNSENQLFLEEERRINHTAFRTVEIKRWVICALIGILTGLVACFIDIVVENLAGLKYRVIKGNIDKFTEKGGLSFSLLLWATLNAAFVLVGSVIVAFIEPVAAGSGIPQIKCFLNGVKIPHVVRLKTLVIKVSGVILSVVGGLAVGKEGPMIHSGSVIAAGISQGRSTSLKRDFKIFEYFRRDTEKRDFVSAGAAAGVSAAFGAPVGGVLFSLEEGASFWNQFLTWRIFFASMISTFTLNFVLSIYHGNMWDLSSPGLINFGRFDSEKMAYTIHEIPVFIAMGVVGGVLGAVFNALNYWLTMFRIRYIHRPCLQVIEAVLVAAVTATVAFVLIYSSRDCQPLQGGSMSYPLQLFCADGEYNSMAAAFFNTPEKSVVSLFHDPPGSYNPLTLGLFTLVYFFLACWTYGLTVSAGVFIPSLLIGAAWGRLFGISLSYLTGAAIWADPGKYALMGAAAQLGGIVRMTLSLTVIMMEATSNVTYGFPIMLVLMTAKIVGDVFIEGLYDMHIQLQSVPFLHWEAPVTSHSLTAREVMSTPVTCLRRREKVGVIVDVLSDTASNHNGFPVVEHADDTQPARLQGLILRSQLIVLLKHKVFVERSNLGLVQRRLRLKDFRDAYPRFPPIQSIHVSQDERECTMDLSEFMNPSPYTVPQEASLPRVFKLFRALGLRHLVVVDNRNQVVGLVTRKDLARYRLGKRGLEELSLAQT

Variants of: B1
Conditions: with clcn7_human CLCN7, P51798

| effect of a mutation on the interaction | Variant |
| --- | --- |
| decreasing interaction strength | Y300A |
